The subject of data set [1] is HeLa Kyoto. As to the kind of experiment: solubility change mitosis vs G1/S (difference of NP-40 vs SDS log2 ratios) (log2 ratio difference); higher = more soluble in mitosis.
In data set [2] the test system is HeLa Kyoto. Briefly: solubility in G1/S (NP-40 vs SDS abundance) (log2 ratio); higher = more soluble. The settings on record: cell cycle stage: G1/S.
In data set [3] the test system is HeLa Kyoto. As to the kind of experiment: thermal stability score vs G1/S (z-score of summed log2 fold changes over temperatures); higher = more thermally stable than in G1/S.
The subject of data set [4] is HeLa Kyoto. As to the kind of experiment: melting temperature (median over replicates), in situ; higher = more thermally stable.
Setting [5] is: cell cycle stage: early G1 (4.5 h after nocodazole release).

This is an account of results in the supplement of paper PMC5998384.
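Wherever melting temperature (median over replicates), in situ is given: HeLa Kyoto cells synchronized by double thymidine or nocodazole block, proteins quantified by TMT10plex mass spectrometry, three independent biological replicates.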
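Wherever solubility change mitosis vs G1/S (difference of NP-40 vs SDS log2 ratios) is given: synchronized HeLa Kyoto cells (double thymidine block for G1/S, nocodazole release for mitosis), protein amounts in NP-40 versus SDS lysates quantified by mass spectrometry, three biological replicates.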
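Wherever solubility in G1/S (NP-40 vs SDS abundance) is given: HeLa Kyoto cells arrested at G1/S by double thymidine block, proteins quantified by TMT10plex mass spectrometry in mild NP-40 versus SDS extracts, three biological replicates.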
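Wherever thermal stability score vs G1/S (z-score of summed log2 fold changes over temperatures) is given: synchronized HeLa Kyoto cells, proteins quantified by TMT10plex mass spectrometry, three biological replicates, mitosis taken 0.5 h after nocodazole release, G1/S directly after double thymidine block.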

Turning to “MAALKSWLSRSVTSFFRYRQCLCVPVVANFKKRCFSELIRPWHKTVTIGFGVTLCAVPIAQKSEPHSLSSEALMRRAVSLVTDSTSTFLSQTTYALIEAITEYTKAVYTLTSLYRQYTSLLGKMNSEEEDEVWQVIIGARAEMTSKHQEYLKLETTWMTAVGLSEMAAEAAYQTGADQASITARNHIQLVKLQVEEVHQLSRKAETKLAEAQIEELRQKTQEEGEERAESEQEAYLRED [DIABLO]”, the “solubility change mitosis (log2)” value in the data set with HeLa Kyoto [1] is 0.345. Also, the “solubility in G1/S (log2)” value in the data set with HeLa Kyoto [2] was -0.173. Also, the thermal stability score in the data set with HeLa Kyoto [3] (setting [5]) is -0.685; in the data set on HeLa Kyoto [3] (cell cycle stage: mitosis), -1.02. For the same sequence, the melting temperature in the data set with HeLa Kyoto [4] (cell cycle stage: G1/S) came out at 54.9 °C; with HeLa Kyoto [4] (cell cycle stage: mitosis) it was 53.3 °C.
Take “MAALVRPARFVVRPLLQVVQAWDLDARRWVRALRRSPVKVVFPSGEVVEQKRAPGKQPRKAPSEASAQEQREKQPLEESASRAPSTWEESGLRYDKAYPGDRRLSSVMTIVKSRPFREKQGKILLEGRRLISDALKAGAVPKMFFFSRLEYLKELPVDKLKGVSLIKVKFEDIKDWSDLVTPQGIMGIFAKPDHVKMTYPKTQLQHSLPLLLICDNLRDPGNLGTILRSAAGAGCSKVLLTKGCVDAWEPKVLRAGMGAHFRMPIINNLEWETVPNYLPPDTRVYVADNCGLYAQAEMSNKASDHGWVCDQRVMKFHKYEEEEDVETGASQDWLPHVEVQSYDSDWTEAPAAVVIGGETYGVSLESLQLAESTGGKRLLIPVVPGVDSLNSAMAASILLFEGKRQLRGRAEDLSRDRSYH [RNMTL1]”: the “solubility change mitosis (log2)” value in the data set on HeLa Kyoto [1] is 0.163. Also, the “solubility in G1/S (log2)” value in the data set on HeLa Kyoto [2] was -0.452. Moreover, the thermal stability score with HeLa Kyoto [3] (setting [5]) is -0.281; in the data set on HeLa Kyoto [3] (cell cycle stage: mitosis), -1.34. Further, the melting temperature amounted to 53.2 °C in the data set on HeLa Kyoto [4] (cell cycle stage: G1/S) and 52.1 °C with HeLa Kyoto [4] (cell cycle stage: mitosis).
With “MAAMRKALPRRLVGLASLRAVSTSSMGTLPKRVKIVEVGPRDGLQNEKNIVSTPVKIKLIDMLSEAGLSVIETTSFVSPKWVPQMGDHTEVLKGIQKFPGINYPVLTPNLKGFEAAVAAGAKEVVIFGAASELFTKKNINCSIEESFQRFDAILKAAQSANISVRGYVSCALGCPYEGKISPAKVAEVTKKFYSMGCYEISLGDTIGVGTPGIMKDMLSAVMQEVPLAALAVHCHDTYGQALANTLMALQMGVSVVDSSVAGLGGCPYAQGASGNLATEDLVYMLEGLGIHTGVNLQKLLEAGNFICQALNRKTSSKVAQATCKL [HMGCL]”, the “solubility change mitosis (log2)” value with HeLa Kyoto [1] is -0.047. In addition, the “solubility in G1/S (log2)” value in the data set with HeLa Kyoto [2] was found to be 0.536. In addition, the values for the thermal stability score in the data set with HeLa Kyoto [3] (setting [5]) and in the data set with HeLa Kyoto [3] (cell cycle stage: mitosis) were 0.275 and 0.372, respectively. Further, the melting temperature with HeLa Kyoto [4] (cell cycle stage: G1/S) is 54.1 °C; in the data set with HeLa Kyoto [4] (cell cycle stage: mitosis), 53.9 °C.
For “MAANKSKGQSSLALHKVIMVGSGGVGKSALTLQFMYDEFVEDYEPTKADSYRKKVVLDGEEVQIDILDTAGQEDYAAIRDNYFRSGEGFLLVFSITEHESFTATAEFREQILRVKAEEDKIPLLVVGNKSDLEERRQVPVEEARSKAEEWGVQYVETSAKTRANVDKVFFDLMREIRTKKMSENKDKNGKKSSKNKKSFKERCCLL [RALB]”, in the data set with HeLa Kyoto [1], the “solubility change mitosis (log2)” value worked out at 0.0599. For the same sequence, the “solubility in G1/S (log2)” value in the data set on HeLa Kyoto [2] amounted to 0.046. Moreover, the thermal stability score in the data set on HeLa Kyoto [3] (setting [5]) was -0.446; in the data set on HeLa Kyoto [3] (cell cycle stage: mitosis) it was -2.23. Besides, the values for the melting temperature in the data set on HeLa Kyoto [4] (cell cycle stage: G1/S) and in the data set on HeLa Kyoto [4] (cell cycle stage: mitosis) were 57 °C and 57.7 °C, respectively.
In the case of “MAANMYRVGDYVYFENSSSNPYLIRRIEELNKTANGNVEAKVVCFYRRRDISSTLIALADKHATLSVCYKAGPGADNGEEGEIEEEMENPEMVDLPEKLKHQLRHRELFLSRQLESLPATHIRGKCSVTLLNETESLKSYLEREDFFFYSLVYDPQQKTLLADKGEIRVGNRYQADITDLLKEGEEDGRDQSRLETQVWEAHNPLTDKQIDQFLVVARSVGTFARALDCSSSVRQPSLHMSAAAASRDITLFHAMDTLHKNIYDISKAISALVPQGGPVLCRDEMEEWSASEANLFEEALEKYGKDFTDIQQDFLPWKSLTSIIEYYYMWKTTDRYVQQKRLKAAEAESKLKQVYIPNYNKPNPNQISVNNVKAGVVNGTGAPGQSPGAGRACESCYTTQSYQWYSWGPPNMQCRLCASCWTYWKKYGGLKMPTRLDGERPGPNRSNMSPHGLPARSSGSPKFAMKTRQAFYLHTTKLTRIARRLCREILRPWHAARHPYLPINSAAIKAECTARLPEASQSPLVLKQAVRKPLEAVLRYLETHPRPPKPDPVKSVSSVLSSLTPAKVAPVINNGSPTILGKRSYEQHNGVDGNMKKRLLMPSRGLANHGQARHMGPSRNLLLNGKSYPTKVRLIRGGSLPPVKRRRMNWIDAPDDVFYMATEETRKIRKLLSSSETKRAARRPYKPIALRQSQALPPRPPPPAPVNDEPIVIED [MTA1]”, the “solubility change mitosis (log2)” value in the data set with HeLa Kyoto [1] is -0.00553. For the same sequence, the “solubility in G1/S (log2)” value in the data set with HeLa Kyoto [2] is -0.0863. For the same sequence, the thermal stability score in the data set with HeLa Kyoto [3] (setting [5]) was determined as 1.08; in the data set on HeLa Kyoto [3] (cell cycle stage: mitosis) it was 2.79. Besides, the melting temperature turned out to be 49.1 °C in the data set on HeLa Kyoto [4] (cell cycle stage: G1/S) and 50.3 °C in the data set on HeLa Kyoto [4] (cell cycle stage: mitosis).
Take “MAANMYRVGDYVYFENSSSNPYLIRRIEELNKTASGNVEAKVVCFYRRRDISNTLIMLADKHAKEIEEESETTVEADLTDKQKHQLKHRELFLSRQYESLPATHIRGKCSVALLNETESVLSYLDKEDTFFYSLVYDPSLKTLLADKGEIRVGPRYQADIPEMLLEGESDEREQSKLEVKVWDPNSPLTDRQIDQFLVVARAVGTFARALDCSSSVRQPSLHMSAAAASRDITLFHAMDTLYRHSYDLSSAISVLVPLGGPVLCRDEMEEWSASEASLFEEALEKYGKDFNDIRQDFLPWKSLTSIIEYYYMWKTTDRYVQQKRLKAAEAESKLKQVYIPTYSKPNPNQISTSNGKPGAVNGAVGTTFQPQNPLLGRACESCYATQSHQWYSWGPPNMQCRLCAICWLYWKKYGGLKMPTQSEEEKLSPSPTTEDPRVRSHVSRQAMQGMPVRNTGSPKSAVKTRQAFFLHTTYFTKFARQVCKNTLRLRQAARRPFVAINYAAIRAEYADRHAELSGSPLKSKSTRKPLACIIGYLEIHPAKKPNVIRSTPSLQTPTTKRMLTTPNHTSLSILGKRNYSHHNGLDELTCCVSD [MTA3]”: the “solubility change mitosis (log2)” value in the data set with HeLa Kyoto [1] was -0.00121. In addition, the “solubility in G1/S (log2)” value with HeLa Kyoto [2] is -0.0389. Besides, the results for the thermal stability score in the data set with HeLa Kyoto [3] (setting [5]) and in the data set with HeLa Kyoto [3] (cell cycle stage: mitosis) were 0.944 and 4.09, respectively. Further, the melting temperature in the data set on HeLa Kyoto [4] (cell cycle stage: G1/S) was determined as 49.3 °C; with HeLa Kyoto [4] (cell cycle stage: mitosis) it was 49.7 °C.
